In patent US20210246166A1 (Bayer, published 2021):
Numbered stars: 1 amine (or outer) side, 2 acyl side, 3 side chain; on linkers, the order of the positions; unused ones are H or OH. Bridge positions count the residues as written; N and C are the ends. Square brackets hold non-standard residues; d marks the D form. Primed or numbered codes have the meaning given here. Ends that are not written are not given here. * marks the point of attachment. TTDS = 1,13-diamino-4,7,10-trioxatridecan-succinamic acid, O=C(CCC(=O)[*:2])NCCCOCCOCCOCCCN[*:1]; Tranexamic″ = tranexamic acid, NC[C@H]1CC[C@@H](C(=O)*)CC1; NH(CH2CH2O)5CH2CO = O=C(COCCOCCOCCOCCOCCN[*:1])[*:2]; NH(CH2CH2O)4CH2CO = O=C(COCCOCCOCCOCCN[*:1])[*:2]; Pro(4-spirocPr) = O=C(O)[C@@H]1CC2(CC2)CN1; Oic = O=C(O)[C@@H]1C[C@@H]2CCCC[C@@H]2N1; PEG8 = NCCOCCOCCOCCOCCOCCOCCOCCOCCC(=O)O; PEG7 = NCCOCCOCCOCCOCCOCCOCCOCCC(=O)O; PEG6 = NCCOCCOCCOCCOCCOCCOCCC(=O)O; tBuAla = CC(C)(C)C[C@H](N)C(=O)O; PEG5 = NCCOCCOCCOCCOCCOCCC(=O)O; PEG4 = NCCOCCOCCOCCOCCC(=O)O; Pen = CC(C)(S)[C@H](N)C(=O)O; Tranexamic = tranexamic acid; PEG3 = NCCOCCOCCOCCC(=O)O; Orn = NCCC[C@H](N)C(=O)O; Sar = CNCC(=O)O

T1: recombinant human MASP1 active protease (amino acids 297-699, C-terminal His Tag) (human, UniProt P48740 297-699)
T1 sequence: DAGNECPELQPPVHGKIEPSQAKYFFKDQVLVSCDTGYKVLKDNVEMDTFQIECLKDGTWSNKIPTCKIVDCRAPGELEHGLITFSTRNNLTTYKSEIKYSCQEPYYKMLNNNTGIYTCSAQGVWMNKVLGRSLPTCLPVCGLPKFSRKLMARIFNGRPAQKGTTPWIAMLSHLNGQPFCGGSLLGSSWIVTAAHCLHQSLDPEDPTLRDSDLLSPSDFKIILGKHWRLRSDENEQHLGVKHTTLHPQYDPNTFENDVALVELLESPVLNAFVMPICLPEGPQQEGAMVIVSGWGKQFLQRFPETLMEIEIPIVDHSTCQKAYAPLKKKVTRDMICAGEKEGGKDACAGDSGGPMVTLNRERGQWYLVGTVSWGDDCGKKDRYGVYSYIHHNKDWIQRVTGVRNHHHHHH

B1: Example 430: ((N-Me)G)-IC+SRS-((tBu)A)-PPI-(Pen)+IP-(Orn)-(Orn)-(Orn)-NH2 (peptide)
peptide: [Sar]ICSRS[tBuAla]PPI[Pen]IP[Orn][Orn][Orn]-NH2
modifications: disulfide 3-11; N-terminus assumed
SMILES: CC[C@H](C)[C@H](NC(=O)CNC)C(=O)N[C@H]1CSSC(C)(C)[C@@H](C(=O)N[C@H](C(=O)N2CCC[C@H]2C(=O)N[C@@H](CCCN)C(=O)N[C@@H](CCCN)C(=O)N[C@@H](CCCN)C(N)=O)[C@@H](C)CC)NC(=O)[C@H]([C@@H](C)CC)NC(=O)[C@@H]2CCCN2C(=O)[C@@H]2CCCN2C(=O)[C@H](CC(C)(C)C)NC(=O)[C@H](CO)NC(=O)[C@H](CCCNC(=N)N)NC(=O)[C@H](CO)NC1=O
B2: Example 423: (Tranexamic)-IC+SRS-((tBu)A)-PPI-(Pen)+IP-(PEG3(16 atoms))-NH2 (peptide)
peptide: {Tranexamic″}-ICSRS[tBuAla]PPI[Pen]IP-{PEG4-NH2}
modifications: disulfide 2-10
SMILES: CC[C@H](C)[C@@H]1NC(=O)[C@@H]2CCCN2C(=O)[C@@H]2CCCN2C(=O)[C@H](CC(C)(C)C)NC(=O)[C@H](CO)NC(=O)[C@H](CCCNC(=N)N)NC(=O)[C@H](CO)NC(=O)[C@@H](NC(=O)[C@@H](NC(=O)[C@H]2CC[C@@H](CN)CC2)[C@@H](C)CC)CSSC(C)(C)[C@@H](C(=O)N[C@H](C(=O)N2CCC[C@H]2C(=O)NCCOCCOCCOCCOCCC(N)=O)[C@@H](C)CC)NC1=O
B3: Example 418: AIC+SRSLP-(Oic)-I-(Pen)+IPN-OH (peptide)
peptide: AICSRSLP[Oic]I[Pen]IPN-OH
modifications: disulfide 3-11; N-terminus assumed
SMILES: CC[C@H](C)[C@H](NC(=O)[C@H](C)N)C(=O)N[C@H]1CSSC(C)(C)[C@@H](C(=O)N[C@H](C(=O)N2CCC[C@H]2C(=O)N[C@@H](CC(N)=O)C(=O)O)[C@@H](C)CC)NC(=O)[C@H]([C@@H](C)CC)NC(=O)[C@@H]2C[C@@H]3CCCC[C@@H]3N2C(=O)[C@@H]2CCCN2C(=O)[C@H](CC(C)C)NC(=O)[C@H](CO)NC(=O)[C@H](CCCNC(=N)N)NC(=O)[C@H](CO)NC1=O
B4: Example 419: ((N-Me)G)-IC+SRSLP-(Oic)-I-(Pen)+I-((5-Azaspiro[2.4]heptane-1-carboxylic acid)-OH (peptide)
peptide: [Sar]ICSRSLP[Oic]I[Pen]I[5‑Azaspiro(2.4)heptane‑1‑carboxylic acid]-OH
modifications: disulfide 3-11
B5: Example 435: (Tranexamic)-IC+SRS-((tBu)A)-PPI-(Pen)+IP-(PEG4(19 atoms))-NH2 (peptide)
peptide: [Tranexamic]ICSRS[tBuAla]PPI[Pen]IP[PEG5]-NH2
modifications: disulfide 3-11
B6: Example 433: ((N-Me)G)-IC+SRS-((tBu)A)-PPI-(Pen)+IPD-((N-Me)G)-((N-Me)G)-((N-Me)G)-NH2 (peptide)
peptide: [Sar]ICSRS[tBuAla]PPI[Pen]IPD[Sar][Sar][Sar]-NH2
modifications: disulfide 3-11; N-terminus assumed
SMILES: CC[C@H](C)[C@H](NC(=O)CNC)C(=O)N[C@H]1CSSC(C)(C)[C@@H](C(=O)N[C@H](C(=O)N2CCC[C@H]2C(=O)N[C@@H](CC(=O)O)C(=O)N(C)CC(=O)N(C)CC(=O)N(C)CC(N)=O)[C@@H](C)CC)NC(=O)[C@H]([C@@H](C)CC)NC(=O)[C@@H]2CCCN2C(=O)[C@@H]2CCCN2C(=O)[C@H](CC(C)(C)C)NC(=O)[C@H](CO)NC(=O)[C@H](CCCNC(=N)N)NC(=O)[C@H](CO)NC1=O
B7: Example 429: (Tranexamic)-IC+SRS-((tBu)A)-PPI-(Pen)+IP-(TTDS)-NH2 (peptide)
peptide: [Tranexamic]ICSRS[tBuAla]PPI[Pen]IP[TTDS]-NH2
modifications: disulfide 3-11
B8: Example 421: (Tranexamic)-IC+SRS-((tBu)A)-PPI-(Pen)+IP-(PEG2(13 atoms))-NH2 (peptide)
peptide: {Tranexamic″}-ICSRS[tBuAla]PPI[Pen]IP-{PEG3-NH2}
modifications: disulfide 2-10
SMILES: CC[C@H](C)[C@@H]1NC(=O)[C@@H]2CCCN2C(=O)[C@@H]2CCCN2C(=O)[C@H](CC(C)(C)C)NC(=O)[C@H](CO)NC(=O)[C@H](CCCNC(=N)N)NC(=O)[C@H](CO)NC(=O)[C@@H](NC(=O)[C@@H](NC(=O)[C@H]2CC[C@@H](CN)CC2)[C@@H](C)CC)CSSC(C)(C)[C@@H](C(=O)N[C@H](C(=O)N2CCC[C@H]2C(=O)NCCOCCOCCOCCC(N)=O)[C@@H](C)CC)NC1=O
B9: Example 424: (Tranexamic)-IC+SRS-((tBu)A)-PPI-(Pen)+IP-(PEG5-CH2CO2H (18 atoms))-NH2 (peptide)
peptide: {Tranexamic″}-ICSRS[tBuAla]PPI[Pen]IP-{NH(CH2CH2O)5CH2CO-NH2}
modifications: disulfide 2-10
SMILES: CC[C@H](C)[C@@H]1NC(=O)[C@@H]2CCCN2C(=O)[C@@H]2CCCN2C(=O)[C@H](CC(C)(C)C)NC(=O)[C@H](CO)NC(=O)[C@H](CCCNC(=N)N)NC(=O)[C@H](CO)NC(=O)[C@@H](NC(=O)[C@@H](NC(=O)[C@H]2CC[C@@H](CN)CC2)[C@@H](C)CC)CSSC(C)(C)[C@@H](C(=O)N[C@H](C(=O)N2CCC[C@H]2C(=O)NCCOCCOCCOCCOCCOCC(N)=O)[C@@H](C)CC)NC1=O
B10: Example 425: (Tranexamic)-IC+SRS-((tBu)A)-PPI-(Pen)+IP-(PEG5(22 atoms))-NH2 (peptide)
peptide: {Tranexamic″}-ICSRS[tBuAla]PPI[Pen]IP-{PEG6-NH2}
modifications: disulfide 2-10
SMILES: CC[C@H](C)[C@@H]1NC(=O)[C@@H]2CCCN2C(=O)[C@@H]2CCCN2C(=O)[C@H](CC(C)(C)C)NC(=O)[C@H](CO)NC(=O)[C@H](CCCNC(=N)N)NC(=O)[C@H](CO)NC(=O)[C@@H](NC(=O)[C@@H](NC(=O)[C@H]2CC[C@@H](CN)CC2)[C@@H](C)CC)CSSC(C)(C)[C@@H](C(=O)N[C@H](C(=O)N2CCC[C@H]2C(=O)NCCOCCOCCOCCOCCOCCOCCC(N)=O)[C@@H](C)CC)NC1=O
B11: Example 439: ((N-Me)G)-IC+SRS-((tBu)A)-P-((6S)-5-Azaspiro[2.4]heptane-6-carboxylic acid)-I-(Pen)+IP-NH2 (peptide)
peptide: [Sar]ICSRS[tBuAla]P[Pro(4-spirocPr)]I[Pen]IP-NH2
modifications: disulfide 3-11; N-terminus assumed
SMILES: CC[C@H](C)[C@H](NC(=O)CNC)C(=O)N[C@H]1CSSC(C)(C)[C@@H](C(=O)N[C@H](C(=O)N2CCC[C@H]2C(N)=O)[C@@H](C)CC)NC(=O)[C@H]([C@@H](C)CC)NC(=O)[C@@H]2CC3(CC3)CN2C(=O)[C@@H]2CCCN2C(=O)[C@H](CC(C)(C)C)NC(=O)[C@H](CO)NC(=O)[C@H](CCCNC(=N)N)NC(=O)[C@H](CO)NC1=O
B12: Example 427: (Tranexamic)-IC+SRS-((tBu)A)-PPI-(Pen)+IP-(PEG8(28 atoms))-NH2 (peptide)
peptide: {Tranexamic″}-ICSRS[tBuAla]PPI[Pen]IP-{PEG8-NH2}
modifications: disulfide 2-10
SMILES: CC[C@H](C)[C@@H]1NC(=O)[C@@H]2CCCN2C(=O)[C@@H]2CCCN2C(=O)[C@H](CC(C)(C)C)NC(=O)[C@H](CO)NC(=O)[C@H](CCCNC(=N)N)NC(=O)[C@H](CO)NC(=O)[C@@H](NC(=O)[C@@H](NC(=O)[C@H]2CC[C@@H](CN)CC2)[C@@H](C)CC)CSSC(C)(C)[C@@H](C(=O)N[C@H](C(=O)N2CCC[C@H]2C(=O)NCCOCCOCCOCCOCCOCCOCCOCCOCCC(N)=O)[C@@H](C)CC)NC1=O
B13: Example 422: (Tranexamic)-IC+SRS-((tBu)A)-PPI-(Pen)+IP-(PEG4-CH2CO2H (15 atoms))-NH2 (peptide)
peptide: {Tranexamic″}-ICSRS[tBuAla]PPI[Pen]IP-{NH(CH2CH2O)4CH2CO-NH2}
modifications: disulfide 2-10
SMILES: CC[C@H](C)[C@@H]1NC(=O)[C@@H]2CCCN2C(=O)[C@@H]2CCCN2C(=O)[C@H](CC(C)(C)C)NC(=O)[C@H](CO)NC(=O)[C@H](CCCNC(=N)N)NC(=O)[C@H](CO)NC(=O)[C@@H](NC(=O)[C@@H](NC(=O)[C@H]2CC[C@@H](CN)CC2)[C@@H](C)CC)CSSC(C)(C)[C@@H](C(=O)N[C@H](C(=O)N2CCC[C@H]2C(=O)NCCOCCOCCOCCOCC(N)=O)[C@@H](C)CC)NC1=O
B14: Example 437: ((N-Me)G)-IC+SRSLP-(Oic)-I-(Pen)+IP-((2S)-3-(Triazol-1-yl)-2-(amino)propanoic acid)-NH2 (peptide)
peptide: [Sar]ICSRSLP[Oic]I[Pen]IP[(2S)‑3‑(Triazol-1-yl)‑2‑(amino)propanoic acid]-NH2
modifications: disulfide 3-11
B15: Example 436: ((N-Me)G)-IC+SRSLP-(Oic)-I-(Pen)+IPP-((2S)-3-(Triazol-1-yl)-2-(amino)propanoic acid)-NH2 (peptide)
peptide: [Sar]ICSRSLP[Oic]I[Pen]IPP[(2S)‑3‑(Triazol-1-yl)‑2‑(amino)propanoic acid]-NH2
modifications: disulfide 3-11
B16: Example 438: ((N-Me)G)-IC+SRSLP-(Oic)-I-(Pen)+IP-((5-Azaspiro[2.4]heptane-1-carboxylic acid)-OH (peptide)
peptide: [Sar]ICSRSLP[Oic]I[Pen]IP[5‑Azaspiro(2.4)heptane‑1‑carboxylic acid]-OH
modifications: disulfide 3-11
B17: Example 426: (Tranexamic)-IC+SRS-((tBu)A)-PPI-(Pen)+IP-(PEG7(25 atoms))-NH2 (peptide)
peptide: {Tranexamic″}-ICSRS[tBuAla]PPI[Pen]IP-{PEG7-NH2}
modifications: disulfide 2-10
SMILES: CC[C@H](C)[C@@H]1NC(=O)[C@@H]2CCCN2C(=O)[C@@H]2CCCN2C(=O)[C@H](CC(C)(C)C)NC(=O)[C@H](CO)NC(=O)[C@H](CCCNC(=N)N)NC(=O)[C@H](CO)NC(=O)[C@@H](NC(=O)[C@@H](NC(=O)[C@H]2CC[C@@H](CN)CC2)[C@@H](C)CC)CSSC(C)(C)[C@@H](C(=O)N[C@H](C(=O)N2CCC[C@H]2C(=O)NCCOCCOCCOCCOCCOCCOCCOCCC(N)=O)[C@@H](C)CC)NC1=O

Each binder was assayed against T1, recombinant human MASP1 active protease … (assay: cell-based or functional assay).

| human MASP1 IC50 [nM] | Binder |
| --- | --- |
| 1.4 | B1 |
| 5.7 | B2 |
| 1.8 | B3 |
| 5.1 | B4 |
| 9.2 | B5 |
| 1.7 | B6 |
| 6.9 | B7 |
| 5 | B8 |
| 6.6 | B9 |
| 7.7 | B10 |
| 3.2 | B11 |
| 10 | B12 |
| 8.1 | B13 |
| 2.2 | B14 |
| 2.3 | B15 |
| 2.9 | B16 |
| 9.1 | B17 |

Each binder was assayed against recombinant human MASP2 active protease (amino acids 297-686, C-terminal His Tag) (human, UniProt O00187 297-686) (assay: cell-based or functional assay).
Sequence of recombinant human MASP2 active protease (amino acids 297-686, C-terminal His Tag) (O00187 other isoform, or with tags, fused parts or gaps limits assumed): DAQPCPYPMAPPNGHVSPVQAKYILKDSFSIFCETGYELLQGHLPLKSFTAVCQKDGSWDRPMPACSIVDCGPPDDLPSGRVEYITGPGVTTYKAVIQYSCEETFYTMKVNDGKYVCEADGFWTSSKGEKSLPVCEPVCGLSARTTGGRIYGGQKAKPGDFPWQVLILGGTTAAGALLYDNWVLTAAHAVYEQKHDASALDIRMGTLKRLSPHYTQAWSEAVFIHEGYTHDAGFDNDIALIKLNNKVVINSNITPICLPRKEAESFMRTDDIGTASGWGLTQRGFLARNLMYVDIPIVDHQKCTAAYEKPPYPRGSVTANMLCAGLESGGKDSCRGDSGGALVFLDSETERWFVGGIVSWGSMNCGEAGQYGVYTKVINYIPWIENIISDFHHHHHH

| human MASP2 IC50 [nM] | Binder |
| --- | --- |
| 91 | B1 |
| 12 | B2 |
| 130 | B3 |
| 100 | B4 |
| 17 | B5 |
| 120 | B6 |
| 12 | B7 |
| 9.8 | B8 |
| 11 | B9 |
| 13 | B10 |
| 15 | B11 |
| 15 | B12 |
| 12 | B13 |
| 76 | B14 |
| 44 | B15 |
| 83 | B16 |
| 15 | B17 |
